Results: patent US12168773B2, “Engineered phosphoenolpyruvate carboxylase enzymes” (The Regents of the University of California, priority 2019, dated 2024)

How the values were obtained:
[1] = system: Zea mays PPC1 (ZmPPC1, C4 PEPC); experiment: malate dehydrogenase coupled PEPC enzymatic assay, maize C4 PPC1 and engineered variants; assay type: biochemical; settings: for Km: 0-7.5 mM phosphoenolpyruvate, read-out: Km PEP; for Km / Vmax: 25° C, HEPES pH7.5; for increases in catalytic efficiency relative to wt ZmPPC1: Kcat/Km; for activity of C4 PEPC: substitution introduced into maize C4 PEPC (ZmPPC1)
Text: (§1) For both Arabidopsis C3 PPC1 (AtPPC1) and maize C4 PPC1 (ZmPPC1), the entire coding sequence for each was cloned into pET22b, which contains an amino-terminal 6×-HIS tag for protein purification, and expression was driven by the T7 promoter and lac operon. Relevant mutations were introduced by the Stratagene QuikChange mutagenesis kit using PCR amplification. Both wild type and mutant cDNA constructs were sequenced entirely following cloning into pet22b. Proteins were produced by growing transformed E. coli (BL21 CodonPlus) in autoinduction medium at 18° C. for 16 hours. Proteins were isolated by sonication of bacterial cells followed by passage over a nickel sepharose affinity column, elution with imidazole and separation on a GE SUPERDEX HILOAD 200 PG 16/60 all using an AKTA FPLC.
(§2) Enzyme analysis was conducted in vitro using protein that was generated by expression in E. coli using the pET22b vector. For expression, pET22b constructs were transformed into E. coli BL21-DE3 codon plus RIL cells and grown at 37° C. in autoinduction media until reaching an OD=1 after which these were transferred to 18° C. for 18 hours. Samples were collected and lysed by sonication. Protein was purified by passage through a His-trap nickel affinity column on an Akta FPLC and then eluted with 400 mM imidazole. Partially purified protein was then separated on an FPLC equipped with a HiPrep S200 size exclusion column (16/60) after which collected sample was concentrated by centrifugation to a final concentration of 4 mg/ml in 50% glycerol. Samples were stored at −20° C.
(§3) For enzymatic assays, a malate dehydrogenase coupled reaction was conducted with a range of substrate concentrations (0-7.5 mM phosphoenolpyruvate pyruvate) and a range of concentrations of allosteric inhibitor (0-50 mM malate). Assays were monitored using a Victor2 microplate reader at 25° C. Reactions consisted of […] PPC enzyme variants, 50 mM HEPES pH7.5, 10 mM MgCl2, 10 mM KHCO3 (carbonate substrate), 0.2 mM NADH, and 10 units/ml of malate dehydrogenase. Reaction time was 15 minutes and samples were measured on an ˜40 second interval. For measurement, which monitors loss of NADH, excitation wavelength was 340 nM and emission wavelength was 460 nM.

[2] = system: Arabidopsis thaliana PPC1 (AtPPC1, C3 PEPC); experiment: malate dehydrogenase coupled PEPC enzymatic assay, Arabidopsis C3 PPC1 and engineered variants; assay type: biochemical; settings: 25° C, HEPES pH7.5
Text: as §1, §2
as §3, with “nM. From these assays, the enzyme kinetics of Tables 4-1 and 4-2 were determined for each enzyme variant.” for “nM.”

Row | Molecule | effects of the allosteric inhibitor malate relative to wt ZmPPC1 [1] | Km [1] [µM] | Vmax [1] [units/mg] | increases in catalytic efficiency relative to wt ZmPPC1 [1] [%] | activity of C4 PEPC [1] | effect of malate on enzyme ([1]; at 50 mM malate) | Km ([2]; 0-7.5 mM phosphoenolpyruvate, read-out: Km PEP) [µM] | Vmax [2] [units/mg]
1 | ZmPPC1 G678S: engineered Zea mays PPC1 with G678S substitution (G682S in SEQ ID NO:15) (protein) MASTKAPGPGEKHHSIDAQLRQLVPGKVSEDDKLIEYDALLVDRFLNILQDLHGPSLREFVQECYEVSADYEGKGDTTKLGELGAKLTGLAPADAILVASSILHMLNLANLAEEVQIAHRRRNSKLKKGGFADEGSATTESDIEETLKRLVSEVGKSPEEVFEALKNQTVDLVFTAHPTQSARRSLLQKNARIRNCLTQLNAKDITDDDKQELDEALQREIQAAFRTDEIRRAQPTPQDEMRYGMSYIHETVWKGVPKFLRRVDTALKNIGINERLPYNVSLIRFSSWMGGDRDGNPRVTPEVTRDVCLLARMMAANLYIDQIEELMFELSMWRCNDELRVRAEELHSSSGSKVTKYYIEFWKQIPPNEPYRVILGHVRDKLYNTRERARHLLASGVSEISAESSFTSIEEFLEPLELCYKSLCDCGDKAIADGSLLDLLRQVFTFGLSLVKLDIRQESERHTDVIDAITTHLGIGSYREWPEDKRQEWLLSELRGKRPLLPPDLPQTDEIADVIGAFHVLAELPPDSFGPYIISMATAPSDVLAVELLQRECGVRQPLPVVPLFERLADLQSAPASVERLFSVDWYMDRIKGKQQVMVGYSDSGKDAGRLSAAWQLYRAQEEMAQVAKRYGVKLTLFHGRGGTVGRGGGPTHLAILSQPPDTINGSIRVTVQGEVIEFCFSEEHLCFQTLQRFTAATLEHGMHPPVSPKPEWRKLMDEMAVVATEEYRSVVVKEARFVEYFRSATPETEYGRMNIGSRPAKRRPGGGITTLRAIPWIFSWTQTRFHLPVWLGVGAAFKFAIDKDVRNFQVLKEMYNEWPFFRVTLDLLEMVFAKGDPGIAGLYDELLVAEELKPFGKQLRDKYVETQQLLLQIAGHKDILEGDPFLKQGLVLRNPYITTLNVFQAYTLKRIRDPNFKVTPQPPLSKEFADENKPAGLVKLNPASEYPPGLEDTLILTMKGIAAGMQNTG | greatly reduce | 2660 ± 333 | 17.74 ± 1.04 | ~200 | increased activity |  |  | 
2 | ZmPPC1 T7781: engineered Zea mays PPC1 with T778I substitution (T782I in SEQ ID NO:15) (protein) MASTKAPGPGEKHHSIDAQLRQLVPGKVSEDDKLIEYDALLVDRFLNILQDLHGPSLREFVQECYEVSADYEGKGDTTKLGELGAKLTGLAPADAILVASSILHMLNLANLAEEVQIAHRRRNSKLKKGGFADEGSATTESDIEETLKRLVSEVGKSPEEVFEALKNQTVDLVFTAHPTQSARRSLLQKNARIRNCLTQLNAKDITDDDKQELDEALQREIQAAFRTDEIRRAQPTPQDEMRYGMSYIHETVWKGVPKFLRRVDTALKNIGINERLPYNVSLIRFSSWMGGDRDGNPRVTPEVTRDVCLLARMMAANLYIDQIEELMFELSMWRCNDELRVRAEELHSSSGSKVTKYYIEFWKQIPPNEPYRVILGHVRDKLYNTRERARHLLASGVSEISAESSFTSIEEFLEPLELCYKSLCDCGDKAIADGSLLDLLRQVFTFGLSLVKLDIRQESERHTDVIDAITTHLGIGSYREWPEDKRQEWLLSELRGKRPLLPPDLPQTDEIADVIGAFHVLAELPPDSFGPYIISMATAPSDVLAVELLQRECGVRQPLPVVPLFERLADLQSAPASVERLFSVDWYMDRIKGKQQVMVGYSDSGKDAGRLSAAWQLYRAQEEMAQVAKRYGVKLTLFHGRGGTVGRGGGPTHLAILSQPPDTINGSIRVTVQGEVIEFCFGEEHLCFQTLQRFTAATLEHGMHPPVSPKPEWRKLMDEMAVVATEEYRSVVVKEARFVEYFRSATPETEYGRMNIGSRPAKRRPGGGITTLRAIPWIFSWIQTRFHLPVWLGVGAAFKFAIDKDVRNFQVLKEMYNEWPFFRVTLDLLEMVFAKGDPGIAGLYDELLVAEELKPFGKQLRDKYVETQQLLLQIAGHKDILEGDPFLKQGLVLRNPYITTLNVFQAYTLKRIRDPNFKVTPQPPLSKEFADENKPAGLVKLNPASEYPPGLEDTLILTMKGIAAGMQNTG | greatly reduce | 1190 ± 104 | 14.05 ± 0.44 | ~300 | increased activity |  |  | 
3 | ZmPPC1 wild type: wild type Zea mays PPC1, C4 PEPC, SEQ ID NO:15 (protein) MASTKAPGPGEKHHSIDAQLRQLVPGKVSEDDKLIEYDALLVDRFLNILQDLHGPSLREFVQECYEVSADYEGKGDTTKLGELGAKLTGLAPADAILVASSILHMLNLANLAEEVQIAHRRRNSKLKKGGFADEGSATTESDIEETLKRLVSEVGKSPEEVFEALKNQTVDLVFTAHPTQSARRSLLQKNARIRNCLTQLNAKDITDDDKQELDEALQREIQAAFRTDEIRRAQPTPQDEMRYGMSYIHETVWKGVPKFLRRVDTALKNIGINERLPYNVSLIRFSSWMGGDRDGNPRVTPEVTRDVCLLARMMAANLYIDQIEELMFELSMWRCNDELRVRAEELHSSSGSKVTKYYIEFWKQIPPNEPYRVILGHVRDKLYNTRERARHLLASGVSEISAESSFTSIEEFLEPLELCYKSLCDCGDKAIADGSLLDLLRQVFTFGLSLVKLDIRQESERHTDVIDAITTHLGIGSYREWPEDKRQEWLLSELRGKRPLLPPDLPQTDEIADVIGAFHVLAELPPDSFGPYIISMATAPSDVLAVELLQRECGVRQPLPVVPLFERLADLQSAPASVERLFSVDWYMDRIKGKQQVMVGYSDSGKDAGRLSAAWQLYRAQEEMAQVAKRYGVKLTLFHGRGGTVGRGGGPTHLAILSQPPDTINGSIRVTVQGEVIEFCFGEEHLCFQTLQRFTAATLEHGMHPPVSPKPEWRKLMDEMAVVATEEYRSVVVKEARFVEYFRSATPETEYGRMNIGSRPAKRRPGGGITTLRAIPWIFSWTQTRFHLPVWLGVGAAFKFAIDKDVRNFQVLKEMYNEWPFFRVTLDLLEMVFAKGDPGIAGLYDELLVAEELKPFGKQLRDKYVETQQLLLQIAGHKDILEGDPFLKQGLVLRNPYITTLNVFQAYTLKRIRDPNFKVTPQPPLSKEFADENKPAGLVKLNPASEYPPGLEDTLILTMKGIAAGMQNTG |  | 4620 ± 406 | 17.56 ± 2.35 |  |  | completely inhibited |  | 
4 | AtPPC1 A651V: engineered Arabidopsis thaliana PPC1 with A651V substitution (alr-108), SEQ ID NO:10 (protein) MANRKLEKMASIDVHLRQLVPGKVSEDDKLVEYDALLLDRFLDILQDLHGEDLRETVQELYEHSAEYEGKHEPKKLEELGSVLTSLDPGDSIVIAKAFSHMLNLANLAEEVQIAYRRRIKKLKKGDFVDESSATTESDLEETFKKLVGDLNKSPEEIFDALKNQTVDLVLTAHPTQSVRRSLLQKHGRIRDCLAQLYAKDITPDDKQELDEALQREIQAAFRTDEIKRTPPTPQDEMRAGMSYFHETIWKGVPKFLRRVDTALKNIGIEERVPYNAPLIQFSSWMGGDRDGNPRVTPEVTRDVCLLARMMAATMYFNQIEDLMFEMSMWRCNDELRARADEVHANSRKDAAKHYIEFWKSIPTTEPYRVILGDVRDKLYHTRERAHQLLSNGHSDVPVEATFINLEQFLEPLELCYRSLCSCGDRPIADGSLLDFLRQVSTFGLSLVRLDIRQESDRHTDVLDAITTHLDIGSYREWSEERRQEWLLSELSGKRPLFGSDLPKTEEIADVLDTFHVIAELPADSFGAYIISMATAPSDVLAVELLQRECRVKQPLRVVPLFEKLADLEAAPAAVARLFSVDWYKNRINGKQEVMIGYSDSGKDAGRLSAAWQLYKAQEELVKVAKEYGVKLTMFHGRGGTVGRGGGPTHLVILSQPPDTINGSLRVTVQGEVIEQSFGEEHLCFRTLQRFTAATLEHGMRPPISPKPEWRALLDEMAVVATEEYRSVVFQEPRFVEYFRLATPELEYGRMNIGSRPSKRKPSGGIESLRAIPWIFAWTQTRFHLPVWLGFGSAIRHVIEKDVRNLHMLQDMYQHWPFFRVTIDLIEMVFAKGDPGIAALYDKLLVSEELWPFGEKLRANFEETKKLILQTAGHKDLLEGDPYLKQRLRLRDSYITTLNVCQAYTLKRIRDPSYHVTLRPHISKEIAESSKPAKELIELNPTSEYAPGLEDTLILTMKGIAAGLQNTG |  |  |  |  |  |  | 956 ± 40 | 15.776 ± 0.25
